assay: soluble on expression in E. coli; label from the status in PepcDB or PDB records

Sequence	soluble on expression in E. coli
MYVENSYLSKQLCFLFYVSSKEIIKKYTNYLKEYDLTYTGYIVLMAIENDEKLNIKKLGERVFLDSGTLTPLLKKLEKKDYVVRTREEKDERNLQISLTEQGKAIKSPLAEISVKVFNEFNISEREASDIINNLRNFVSKNFDYSDKK	not soluble
MYVLIGGAGLIGQQLARQVLDQGHTVAVIDQDPQVCKMVRDRLGAMAFEGSAVNTDILLEAGICRADAVAAVLRQDALNLALVTLACHYGVSRIISRISQQDFIEPMRLAGAHHIISTVDLVVSTMVNAIECPQVESMLHFEQGQIEVFKLTLDSQSPVIGRSVAAIAQDRNFPSSSLIIGYQSHPQADLVIPSGNTVLEANATVLLATKPGLVQSLVNFLMPSLFSPLEHHHHHH	not soluble
MYVLIGGAGLVGLTLAQKLVELGHTVAIIDVDHTACRYAREQVGAMAFEGSAVSTEVLLEAGIRKADALAAVLRNDALNLAMVMLAKHYGVSHILSRMRHADFAQPLRLAGANHVISTVELSVSTMVNAIEYPQVESMMHFEQGQIEVLKISIPNSCYVANRSLAEIAQDSRFPSGSLIIGYQPHPHEDLVIPNGSTVLESGSTILIATKPGSLHQVIDFIEGCKLEHHHHHH	not soluble
MYVYDEYDQRIVEDRVKQFRDQTRRYLAGELTGEEFRPLRLQNGLYIQRYAPMLRIAVPYGLLSSRQLRKLAQIARDYDKGYAHISTRQNVQFNWPELEDVPEILAELATVQMHAIQTSGNCIRNTTTDQFAGVARDELVDPRPWCEIIRQWSTFHPEFAHLPRKFKIAVNGAVSDRAAIEVHDIGLEAVKNEAGELGFRVSVGGGLGRTPIVGSFINEFLPWQHLLGYLDAILRVYNRYGRRDNKYKARIKILVKALTPEVFAERVEAEWANLKDGPSTLTEAEVQRVAAHFVDPAYKALDDLDESLARLDAEHPGFARWRARNTFAHKKPGYVAVTLSLKPTGTAPGDVTDKQLEAIADLADRYSFGEVRNSHNQNIILADVEQGELFALWGELRELGFATPNVGLLTDIICCPGGDFCSLANAKSIPIAEAIQRRFDNLDYLFDIGDIDLNISGCMNACGHHHVGHIGILGVDKKGAEFYQVSLGGSSARDASLGQILGPSFAQEQMADVIDKIIQVYVERRTEEEPFIDTFRRIGIDPFKERVYAAN	not soluble
NAADGIFFPALEQNMMGAVLINENDEVMFFNPAAEKLWGYKREEVIGNNIDMLIPRDLRPAHPEYIRHNREGGKARVEGMSRELQLEKKDGSKIWTRFALSKVSAEGKVYYLALVRDAS	soluble
NEFELGTRGSSRVDLQEQRSVKTRVSLDDLFEQIKQGEMKELNLIVKADVQGSVEALVAALQKIDVEGVRVKIIHAAVGAITESDISLATASNAIVIGFNVRPDANAKRAAESEKVDIRLHRIIYNVIEEIEAAM	soluble
NEIVSGKLRIAASASFGAALLSQTLIEFRLQHPQVSVEVIFTEAPLDLIEAGFDIAFYFTDTPPEGYVGHQLRTLHCKPIAHRSYLADKPNVSTPEDLGDLEHILYKSRDLVLDKWTFTHKQTQQQCRIELESTLSFNLVQSMLDATLAGCGVAMLDEFALAKLESAQKEQLVSLLPDWQTDAILPLYLLYPKREHLPRRTRAFIDHFRNIYSVGE	not soluble
NGVWVIGEQREGKINPVTIELIGEGRKLADQLGKELAVVIAGYEVEKEVKELLHYSVDKVYYINDPLLKDFTTDGYAISIANLIERKKPEVVLVGATSIGRDIAPRIAGKVGTGLTADCTKLEIDSTDNKLLQTRPAFGGNLMATIVCPKNRPQMSTVRPGVMAKAVRNESETGILEVVTPELTEKMIRTRLVEILPQEKKSVN	soluble
NIQYEERVSVQADLGSQTLHVRGLIDSGNQLYDPLTKTPVMIIYIDKLEPIFGTAETMIIRNTDPLEAIEQLDDSFRFLDKMRLIPYRGVGQQNQFLLCVKPDHVTIMTKEEMISADKCLIGISTTKLSADGEFDAIIHPKMLSGKAVKH	not soluble
NKDLLWTTSLNIGHNKNKLTKLDGEQQEIISGVSIHRVGQPYYSIYAYEYAGVDPQTGKELYYINGEDGSRETTTNSAAANKTIIGSIEPKVQGGLTNYVSWKFIDFNLTLTYSLGGHAYDYATWLQSNGGTYHYLGNVPAYYKMEDTWQKTGDNAKLPQFAYGNANKASSRWLMSTDHLRVKNMTLGFTLPQSWSSKAGISKLRAYVSGNNLLTWKKKSLYVDPEVPVDGLCTFETPALRTVTFGLEIGF	not soluble
NLSELTPYILCSICKGYLIDATTITECLHTFCKSCIVRHFYYSNRCPKCNIVVHQTQPL	soluble
NLYFQSARFALTVVRHGETRFNKEKIIQGQGVDEPLSETGFKQAAAAGIFLNNVKFTHAFSSDLMRTKQTMHGILERSKFCKDMTVKYDSRLRERKYGVVEGKALSELRAMAKAAREECPVFTPPGGETLDQVKMRGIDFFEFLCQLILKEADQKEQFSQGSPSNCLETSLAEIFPLGKNHSSKVNSDSGIPGLAASVLVVSHGAYMRSLFDYFLTDLKCSLPATLSRSELMSVTPNTGMSLFIINFEEGREVKPTVQCICMNLQDHLNGLTETR	soluble
NNSQFFMGIPRLKFPADAPSRSTLKLEEAFHVFIPRDEWDERLAPGMWGVDLGACPGGWTYQLVKRSMFVHCVDNGMMADSLMETGQIKHHMVDGFKFEPDRKNVTWIVCDMVEKPARVAHLMGQWLLKGWAKEAIFNLKLPMKGRYDEVLQDLENLKMFLIENKVKFKLQAKHLYHDREEITIHIQCLSNISPH	not soluble
NPSTTKAPLADYLAHLPLAEEERERLGESASFSELHARLAGAEGAAADAGGDPALASVRARLQLGTPELDDAEMFGVDAQGRTFLKISPPIRRTKVIPEPWRTNILVRGWRRLTGRSNPPKPKRALPRARWQ	not soluble
NTIQQLMMILNSASDQPSENLISYFNNCTVNPKESILKRVKDIGYIFKEKFAKAVGAGCVAIGSQRYKLGVRLYYRVMESMLKSEEERLSIQNFSKLLNDNIFHMSLLACALEVVMATYSRSTSQNLDSGTDLSFPWILNVLNLKAFDFYKVIESFIKAEGNLTREMIKHLERCEHRIMESLAWLSDSPLFDLIKQSKTREGKSTSLSLFYKKVYRLAYLRLNTLCERLLSEHPELEHIIWTLFQHTLQNEYELMRDRHLDQIMMCSMYGICKVKNIDLKFKIIVTAYKDLPHAVQETFKRVLIKEEEYDSIIVFYNSVFMQRLKTNILQYASTRPPTLSPIPHI	soluble
NVDKAIKFGQIQNKAVTLGQGGFFNDDFSDGQAGVHYPDLDNAEPMPESEKLQYEKRLVGFYLSHHPLDRFRRDWEAFASLTLDKRDVTPSKL	not soluble
NVKQQFFPPSNTPMFYVDMWMPEGTDIRQTIKQAEKVESYIRQQDDIDFVSVSIGQGLQRFALTYQPEKSYEAYAQFQVRTTDRDNMFKLLHKLDDNLAKTFDEPTFQFKLMEFGPSPASKIEARITGPDPKVLRELAVQVEDILHTDPGARNIRHDWRERTKELVPVFNESKARRLGISKEDLSSTLQMAFGGSTFGVLRDGTHTLPIMMRLPEAERVDFESLQNVKIWSPSLQTYIPVDQIIDGVELDWSEPLIQRRDRKRTLTVLADHDVLSDDTAASLFARVQPKVMALHIPEGYEITWGGEYESSKDAQE	not soluble
NWLTADGAAGPSGEGGFAAEKDRYHLYVSLACPWAHRTLIMRKLKGLEPFLPVSVVNPLMLENGWTFDDSFPEATGDTLYQHDFLYQLYLHADPHYTGRVTVPVLWDKKQQTIVSNESAEIIRMFNTAFDGLGARAGDYYPPALREQIDELNGWIYDNVNN	not soluble
PCRECGRPMMIRTASTGVFLGCSGYSLPPKERCKATVNLIPGDEIAADDEGESESRVLRGKHRCPICSTAMDAYLLDEKHKLHICGNNPDCPGYEIEEGQYRIKGYEGPSLECDKCGSEMQLKTGRFGKFFGCTNPTCKNTRKLLK	not soluble
PDSAVVRIHSSSGTTGKPVIIPYTRNDVDTWAELMMRCYMLAGLTNQDRIQITPGYGLWTAGIGFQLGAERLGAMAIPTGPGNTEKQLEMLVDLKTTALASTSSYALLLAEEIEKRGLKDRIHLRTGVIGSERWSEKMRSRIENELGIETFDIYGLTEIYGPGIALDCSYHEGMHYW	not soluble
PEYQANVQILVNRKHSSAGADLTGQQADVQMITTYKELITKPVVLKPARQTLMAETDIRRSLESLKQTVSVTSTANSQVFSIGVRDKNAKASAMIANQIAATFKDQVQHIIKVNNVTIVAPAETPDQSVAPKK	not soluble
PFEGNATEVFTDGYSMLYSLMKEISKAKHHIHLQFYIFEDDPAGRLLRDLLIDKARQGVEVRLLYDDVGCWKVPHAFFDEMRGAGIEARSFLKVRFPLFTSKVNYRNHRKIVVIDGRVAYTGGMNIALRYMKGFPWGIWRDTHIKIEGKAVYGLQTAFLTDWYVVDRTLITSSRYFPEVGIFGKALIQIVTSDP	not soluble
PFSFCRRIYLPTDLRSYPSVRNVLIHEQEHTRATHFVDLLIAEVACMLFWFNPFAWALKRDMQRNLEFLADRAVLLRGVSRREYQYELL	not soluble
PGAKVRVFHLLPFRREDLVPEEVLASVRDYLRTTKEQGLTMRVAMHGGNTEGDFSVSTAQALKGLFANEGIPLEFDETCANRTSETLLGAVILDDNSTHFIKHLVAQ	not soluble
PGRPTMMISTTAMNTALLQWHPPKELPGELLGYRLQYCRADEARPNTIDFGKDDQHFTVTGLHKGTTYIFRLAAKNRAGLGEEFEKEIRTPEDL	soluble
PGSIWAKAIEHANEERKKPGADGRGDAFCYFVGSRAAGKSTLLNRFLYPTRAEVPKPSEGIEYTYARKPAAFDHEKKDLAHIWEVGGSQEFAEEIVNSDQLFLTAKQVTTAVVVIVVDLSDPAGVLPTLLYWVEQVKKKLGSTYEKFEKKGLQLPEQLRQRAKSKLYSANEDKDTVYHSGISLVIAATKYDAFKNQDPEVKKVMSRVLRYIAHAHGAFLCYLSGLHGASEGSGAEDAALLDNFTRLMNHLIFTGLEKKPVLKMQPQIDHTGPIMVPAGFDTFKSVGRPRSQGEGTVAGGLAEWRELFEKMFPGVREKEAKMSAKGAKFVIPEQYKEEEVDAVRQRKVTDLENFRKEQAAAVEAAKKKALMAKAQQAEAAAKK	not soluble
PIDWNPQRIAVSGVSGVGKTTLCKQIAALSGFPRVELDSLYHGENWVPRETFVAEVQDFIKGPQWVMELQYRQVRPLIVERADTVLWLDYSTPRQMFRLIKRTIPRSLFKTKL	not soluble
PKTLYDKIWDAHLAHEAEDGTCLLYIDRHLVHEVTSPQAFEGLRMAGRKVRAPEKTIAVPDHNVPTTEGREDPAQMTEESRIQVQALDKNAREFGVHYYPVDDIRQGIVHIVGPEQGWTLPGMTVVCGDSHTATHGAFGALAHGIGTSEVEHVLATQTLIQKKSKN	not soluble
PLGSMPFHAEPLKPSDEIDMDLGHSVAAQKFKEIREVLEGNRYWARKVTSEEPEFMAEQVKGQAPNFLWIGCADSRVPEVTIMARKPGDVFVQRNVANQFKPEDDSSQALLNYAIMNVGVTHVMVVGHTGCGGCIAAFDQPLPTEENPGGTPLVRYLEPIIRLKHSLPEGSDVNDLIKENVKMAVKNVVNSPTIQGAWEQARKGEFREVFVHGWLYDLSTGNIVDLNVTQGPHPFVDDRVPRA	soluble
PLRDVLDSNEFRDSKATLPIALGKDISGKPVIVDLAKMPHLLVAGSTGSGKSVGVNTMILSLLYRVQPEDVKFIMIDPKVVELSVYNDIPHLLTPVVTDMKKAANALRWCVDEMERRYQLLSALRVRNIEGFNEKIDEYEAMGMPVPNPIWRLGDTMDAMPPALKKLSYIVVIVDEFADLMMVAGKQIEELIARLAQKARAIGIHLILATQRPSV	not soluble

— the DeepSol protein solubility set
